From the supplement of paper PMC10724198 come the findings set out here.

± gives the standard deviation of the averaged measurements.

The test system of this data set is Saccharomyces cerevisiae. The data set is described as follows: protein stability index of tFT-peptide fusion (C-terminal peptide) (PSI (0-1 scale)); higher = more stable (slower turnover). The following applies: temperature: 30 C. The method, then:
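MPS profiling in S. cerevisiae of the yeast C-terminome library: the last 12 aa of each annotated ORF are fused to the C-terminus of a sfGFP-mCherry timer, after a GGGS linker. Cells are FACS-sorted into 8 mCherry/sfGFP bins and deep-sequenced. PSI runs from 0 (unstable) to 1 (stable); wild type and das1Δ backgrounds, two technical replicates each.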

[1] abbreviates: genetic background: das1 deletion.

RPDSTAPSNENQ [PEP1 C-terminal 12 aa]: the protein stability index runs as follows: under setting [1], 0.7262 ± 0.00093; (genetic background: wild type) 0.7245 ± 0.0041.
The corresponding values for RPFEIASFRLYF [AMS1 C-terminal 12 aa] are 0.703 ± 0.026 and 0.683 ± 0.016.
In the same order, the values of RQYAGCKVNVGK [NUS1 C-terminal 12 aa] are 0.707 ± 0.015 and 0.705 ± 0.051.
In the same order, the values of RRIIESINKSQG [HAT1 C-terminal 12 aa] are 0.659 ± 0.012 and 0.6752 ± 0.0052.
With RRLEMEIANLQE [SPC34 C-terminal 12 aa], the protein stability index runs as follows: under setting [1], 0.726 ± 0.036; (genetic background: wild type) 0.706 ± 0.028.
In the same order, the values of “RRQSLPKRFPLI [YAR035C-A C-terminal 12 aa]” are 0.717 ± 0.014 and 0.697 ± 0.022.
Take RSLLRKSKPLQA [RPM2 C-terminal 12 aa]: the protein stability index by setting is: under setting [1], 0.675 ± 0.024; (genetic background: wild type) 0.639 ± 0.018.
Consider RSPKKKKNYHKR [NUR1 C-terminal 12 aa], for which the protein stability index by setting is: under setting [1], 0.74 ± 0.061; (genetic background: wild type) 0.6729 ± 0.006.
RTGSQSPPSSSQ [MED7 C-terminal 12 aa]: the protein stability index under setting [1] came to 0.707 ± 0.022 and the protein stability index (genetic background: wild type) came out at 0.673 ± 0.025.
In the same order, the values of RVPQSRSFGNLR [NUM1 C-terminal 12 aa] are 0.738 ± 0.012 and 0.746 ± 0.038.
Take RVSRMRAKRKYQ [YOR300W C-terminal 12 aa]: the protein stability index by setting is: under setting [1], 0.712 ± 0.034; (genetic background: wild type) 0.6764 ± 0.0037.
The corresponding values for RYAHIGGLHQRT [PRR2 C-terminal 12 aa] are 0.709 ± 0.01 and 0.686 ± 0.018.
The corresponding values for RYIRHLQQNVST [PHO4 C-terminal 12 aa] are 0.688 ± 0.016 and 0.683 ± 0.037.
The corresponding values for RYIYAYINAQVQ [YHL005C C-terminal 12 aa] are 0.502 ± 0.03 and 0.452 ± 0.0055.
Consider SDDDDYDEVANQ [UBC8 C-terminal 12 aa], for which the protein stability index amounted to 0.689 ± 0.031 under setting [1] and 0.664 ± 0.015 (genetic background: wild type).
In the same order, the values of SDLNVLLQIKHS [YNL228W C-terminal 12 aa] are 0.7201 ± 0.00055 and 0.31 ± 0.015.
As to SEEEEEEEWKGF [RRP1 C-terminal 12 aa], the protein stability index by setting is: under setting [1], 0.68 ± 0.011; (genetic background: wild type) 0.673 ± 0.033.
The corresponding values for “SEKIYRRSLFKQ [YKL165C-A C-terminal 12 aa]” are 0.708 ± 0.03 and 0.686 ± 0.044.
In the same order, the values of SEYRRKQQEKKD [YPI1 C-terminal 12 aa] are 0.722 ± 0.019 and 0.688 ± 0.023.
In the same order, the values of “SFGIGSKVFSSM [YHR063W-A C-terminal 12 aa]” are 0.711 ± 0.021 and 0.695 ± 0.01.
With SFTKSRIHLEFT [SPC105 C-terminal 12 aa], the protein stability index came out at 0.706 ± 0.024 under setting [1] and 0.69832 ± 2.3e-05 (genetic background: wild type).
In the case of SFWPHVAGELEY [INM2 C-terminal 12 aa], the protein stability index runs as follows: under setting [1], 0.72 ± 0.014; (genetic background: wild type) 0.693 ± 0.04.
In the same order, the values of SGGVLDSGDVSL [YGR182C C-terminal 12 aa] are 0.684 ± 0.022 and 0.661 ± 0.029.
In the same order, the values of “SHAALGNETNSL [YHR052C-B C-terminal 12 aa]” are 0.6826 ± 0.0062 and 0.684 ± 0.034.
The corresponding values for SIIDKELENIDS [SGD1 C-terminal 12 aa] are 0.731 ± 0.027 and 0.681 ± 0.018.
On to SKGAQKRKNAKK [SHR3 C-terminal 12 aa], for which the protein stability index amounted to 0.682 ± 0.009 under setting [1] and 0.66 ± 0.022 (genetic background: wild type).
In the same order, the values of SKKDYSIDSVEM [TPO2 C-terminal 12 aa] are 0.698 ± 0.0055 and 0.677 ± 0.014.
